The source of these data is article PMC8253979, “The C-terminal tail extension of myosin 16 acts as a molten globule, including intrinsically disordered regions, and interacts with the N-terminal ankyrin” (The Journal of Biological Chemistry, 2021).

Common to all, as to settings: both partners purified
Test [1] concerns the target T1, Myo16Tail without the IQ motif, Myo16Tail (−IQ), His6-tagged (Rattus norvegicus, UniProt Q9ERC1 1176-1912).
T1 construct: Myosin 16 (Myo16b isoform), Rattus norvegicus, UniProt Q9ERC1, residues 1176-1912 (tail without the IQ motif); Cloned into the pFastBac vector as m1; No removal of the His6 tag is described; also called His6–Myo16Tail (−IQ); source: baculovirus/Sf9, purified by the denaturing procedure (Ni-NTA), renatured
T1 sequence (looked up): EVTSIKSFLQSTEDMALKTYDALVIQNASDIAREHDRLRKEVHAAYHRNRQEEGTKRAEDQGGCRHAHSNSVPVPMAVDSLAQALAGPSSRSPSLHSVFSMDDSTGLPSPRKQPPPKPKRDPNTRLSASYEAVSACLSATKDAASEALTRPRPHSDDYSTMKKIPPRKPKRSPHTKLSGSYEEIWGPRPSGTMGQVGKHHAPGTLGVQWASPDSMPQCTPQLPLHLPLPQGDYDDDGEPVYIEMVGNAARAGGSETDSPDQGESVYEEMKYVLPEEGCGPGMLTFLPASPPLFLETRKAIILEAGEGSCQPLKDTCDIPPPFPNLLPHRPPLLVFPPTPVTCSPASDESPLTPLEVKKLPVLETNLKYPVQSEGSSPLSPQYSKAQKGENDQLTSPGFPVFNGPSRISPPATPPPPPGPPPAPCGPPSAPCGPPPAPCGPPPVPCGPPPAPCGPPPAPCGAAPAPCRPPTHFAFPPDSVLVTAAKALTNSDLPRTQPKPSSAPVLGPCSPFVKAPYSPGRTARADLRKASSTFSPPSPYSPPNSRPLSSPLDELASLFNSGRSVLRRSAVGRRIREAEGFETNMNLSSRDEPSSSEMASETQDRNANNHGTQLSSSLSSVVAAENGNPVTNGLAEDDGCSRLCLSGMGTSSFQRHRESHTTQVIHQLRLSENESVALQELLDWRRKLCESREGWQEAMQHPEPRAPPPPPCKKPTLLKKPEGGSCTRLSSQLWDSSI
The test can be described thus: fluorescence polarisation; steady-state fluorescence anisotropy; Alexa568–Myo16Ank fixed (1.2 μM with Myo16Tail, 1 μM with Myo16Tail (−IQ)), tail construct titrated; λex 578 nm, λem 601 nm; quadratic binding equation (Equation 1). Background: In fluorescence polarisation assays a small probe gives low polarisation when free and higher when bound to something large.

For test [2], the target named is T2, myosin 16 C-terminal tail (Myo16Tail), His6-tagged, with the IQ motif (Rattus norvegicus, UniProt Q9ERC1 1146-1912).
T2 construct: Myosin 16 (Myo16b isoform, 1912 aa), Rattus norvegicus, UniProt Q9ERC1, residues 1146-1912: IQ motif, NHM, proline-rich region and C-terminal element; cloned into pFastBac; No removal of the His6 tag is described; also called His6–Myo16Tail; C-terminal tail extension of Myo16b; source: baculovirus/Sf9, purified under denaturing conditions (6 M GuHCl, 8 M urea, Ni-NTA), renatured by dialysis
T2 sequence (looked up): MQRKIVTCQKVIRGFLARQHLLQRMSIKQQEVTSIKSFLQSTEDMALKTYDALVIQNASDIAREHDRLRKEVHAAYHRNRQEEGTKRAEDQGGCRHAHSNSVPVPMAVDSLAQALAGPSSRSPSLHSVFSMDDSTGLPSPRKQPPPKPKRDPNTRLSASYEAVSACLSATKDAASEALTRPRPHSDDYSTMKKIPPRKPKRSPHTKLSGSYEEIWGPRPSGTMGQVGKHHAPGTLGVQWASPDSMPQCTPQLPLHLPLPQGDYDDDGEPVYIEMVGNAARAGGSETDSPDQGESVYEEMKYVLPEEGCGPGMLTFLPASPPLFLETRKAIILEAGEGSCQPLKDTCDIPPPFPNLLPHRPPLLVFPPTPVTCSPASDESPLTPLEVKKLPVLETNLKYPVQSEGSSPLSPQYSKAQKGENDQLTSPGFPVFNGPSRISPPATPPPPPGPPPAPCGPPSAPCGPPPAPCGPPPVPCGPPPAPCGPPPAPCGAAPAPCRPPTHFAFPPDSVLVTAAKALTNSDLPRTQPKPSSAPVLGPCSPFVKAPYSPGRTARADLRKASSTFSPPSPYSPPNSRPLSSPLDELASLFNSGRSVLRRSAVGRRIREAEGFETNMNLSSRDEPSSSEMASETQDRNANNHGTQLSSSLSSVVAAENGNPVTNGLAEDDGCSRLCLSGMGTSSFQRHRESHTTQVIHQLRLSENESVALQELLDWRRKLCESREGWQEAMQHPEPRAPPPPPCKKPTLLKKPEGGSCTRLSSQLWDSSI
Described as above.

The target in test [3] is T3, Alexa568-labelled synthesized rat myosin 16 IQ motif peptide (Alexa568–Myo16IQ) (Rattus norvegicus, UniProt Q9ERC1 1146-1175, Alexa Fluor C5 568 maleimide label, position not stated).
T3 construct: Myosin 16 IQ motif, Rattus norvegicus, residues 1146-1175 (30 amino acids, MW 3.6385 kDa by mass spectrometry); source: synthetic peptide (GenScript)
T3 peptide (looked up): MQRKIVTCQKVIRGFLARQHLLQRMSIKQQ
As to the kind of experiment: fluorescence polarisation; steady-state fluorescence anisotropy; Alexa568–Myo16IQ fixed (1 μM), Myo16Ank titrated; λex 578 nm, λem 601 nm; quadratic binding equation (Equation 1).

B1: Alexa568-labelled N-terminal ankyrin domain of myosin 16 (Alexa568–Myo16Ank) (domain or fragment)
chain: MEIDQCLLESLPLGQRQRLVRRMRCEQIKAYYEREKVFQKQEGLLKRIKPGKSQKVRFGLADMIQDAIIHHHDKEVLQLLKEGADPHTLVSSGGSLLHLCARYDNVFIAEVLIDRGVNVNHQDEDFWAPMHIACACDNPDIVLLLILAGANVLLQDVNGNIPLDYAVEGTESSAILLAYLDENGVDLNSLRQIKLQRPLSMLTDVRHFLSSGGDVNEKNDDGVTLLHMACASGYKEVVLLLLEHGGDLNGMDDGYWTPLHLAAKYGQTTLVKLLLAHQANPHLVNCNGEKPSDIAASESIEEMLLKAEIAWEERMKESPSVPSLAQEELYEEILHDLPELSSKLSPLVLPIAKQDSLLEKDIMFKDTTKGLCNQESQDGPPETSMVSSSSKPEQVQLTPP
modifications: Alexa Fluor C5 568 maleimide label, position not stated
Broadly, the Kd is the free concentration of one partner at which half of the binding sites on the other are occupied at equilibrium, for simple one-to-one binding. As for B1, the Kd was 5.6 µM in test [1] and 2.5 µM in test [2].

B2: N-terminal ankyrin domain of myosin 16 (Myo16Ank), unlabelled (domain or fragment)
chain: MEIDQCLLESLPLGQRQRLVRRMRCEQIKAYYEREKVFQKQEGLLKRIKPGKSQKVRFGLADMIQDAIIHHHDKEVLQLLKEGADPHTLVSSGGSLLHLCARYDNVFIAEVLIDRGVNVNHQDEDFWAPMHIACACDNPDIVLLLILAGANVLLQDVNGNIPLDYAVEGTESSAILLAYLDENGVDLNSLRQIKLQRPLSMLTDVRHFLSSGGDVNEKNDDGVTLLHMACASGYKEVVLLLLEHGGDLNGMDDGYWTPLHLAAKYGQTTLVKLLLAHQANPHLVNCNGEKPSDIAASESIEEMLLKAEIAWEERMKESPSVPSLAQEELYEEILHDLPELSSKLSPLVLPIAKQDSLLEKDIMFKDTTKGLCNQESQDGPPETSMVSSSSKPEQVQLTPP
B2: binding in test [3] was characterised by a dissociation constant (Kd) of 16 µM.
